B1: AlpC (Corynebacterium glutamicum ATCC 13032) (protein)
chain: MTSAVNVQKKTTQKVLKPINTKNYSATDAVQTGQHGSALGSNIGVYTYTAGLDIGNGYVKGIIEATGDTTGTSVDVIDMPSAATRMSRPTEVPEPDDTAVAVTGADFFNHIDTNFNSPMVKGNYRYLCGTRSLSARGSLEEFDLVGNRSKAEQELSKVLVMAVLAAKAVKDFVAAHGRIPQVAVEGDPGVLRVHTYLALALPINEYVGHRHGYKAQFMGDGAANPAVHVVTVNNFETPATVQLIFERVEVIAEGASAQYAITAGGEVLMNGMLADVRSKGLALEGVTAGDVLQARHTIGVDVGEGTVNFPVFTDGRFNHDASRAYDKGYGTVLESAIQAMDDAGLAHNFNSRKQLADYLQRPPSALKRNFYTRVEQHVDQEAVFFVQDVAAEFARVLSDVGALTEVAFVYGGGSGPLRDRLHEALLIKAAEMGSEDTFPVLYLDSAYSRKLNREGLMIAARSIAAKARK
notes: N-terminal His10 tag kept (His10-AlpC), expressed in E. coli BL21 (DE3) pLysS, HisTrap and Superdex 200 purified; encoded by cryptic prophage CGP3; polymerizes with nucleotide and Mg2+

Columns and labels:
[1] = biological target: His10-AlpC (Cg1890), actin-like protein of the prophage CGP3 of Corynebacterium glutamicum ATCC 13032 (Corynebacterium glutamicum ATCC 13032 (prophage CGP3)); experiment: co-sedimentation; AlpC and AlpA (or control protein) equimolar, 5 uM each, 20 ul, EMSA buffer (20 mM Tris/HCl pH 7.5, 50 mM KCl, 10 mM MgCl2, 5% glycerol, 0.5 mM EDTA, 0.005% Triton X-100), 30°C 30 min, with or without 1 mM ATP and/or 100 ng DNA (500 bp upstream of alpA); 16 100 x g 1 h; SDS-PAGE, Coomassie, ImageQuant TL
[2] = substrate: Nc1nc2c(ncn2[C@@H]2O[C@H](COP(=O)(O)OP(=O)(O)OP(=O)(O)O)[C@@H](O)[C@H]2O)c(=O)[nH]1; experiment: purified protein; type: biochemical, Corynebacterium glutamicum; conditions: 1 uM protein, equimolar MgSO4, 50 mM Tris/HCl pH 7.5, 150 mM NaCl, 10% glycerol, 30 °C
[3] = substrate: Nc1ncnc2c1ncn2[C@@H]1O[C@H](COP(=O)(O)OP(=O)(O)OP(=O)(O)O)[C@@H](O)[C@H]1O; experiment: purified protein; type: biochemical, Corynebacterium glutamicum; conditions: 1 uM protein, equimolar MgSO4, 50 mM Tris/HCl pH 7.5, 150 mM NaCl, 10% glycerol, 30 °C

Molecule | percent of AlpA co-sedimented with AlpC (with ATP and DNA) [1] [%] | percent of AlpA co-sedimented with AlpC (with ATP) [1] [%] | Km [2] [µM] | Km [3] [µM]
His10-AlpA (Cg1891), adaptor protein of the prophage CGP3 of Corynebacterium glutamicum (natural protein) | 38 | 30 | – | –
B1 | – | – | 430 | 200

— article PMC4446434, “A prophage-encoded actin-like protein required for efficient viral DNA replication in bacteria” (Nucleic Acids Research, 2015)
